Source: patent publication US20040106545A1 (MCGILL UNIVERSITY, published 2004)
Positions of bridges follow the written chain, without caps; N, C: chain ends.

Assays:
Experiment in all cases: cell-based or functional assay
[1] = molecular target: T1, chick N-cadherin expressed on transfected 3T3 cells (chick, UniProt P10288 165-912)
T1 sequence (looked up): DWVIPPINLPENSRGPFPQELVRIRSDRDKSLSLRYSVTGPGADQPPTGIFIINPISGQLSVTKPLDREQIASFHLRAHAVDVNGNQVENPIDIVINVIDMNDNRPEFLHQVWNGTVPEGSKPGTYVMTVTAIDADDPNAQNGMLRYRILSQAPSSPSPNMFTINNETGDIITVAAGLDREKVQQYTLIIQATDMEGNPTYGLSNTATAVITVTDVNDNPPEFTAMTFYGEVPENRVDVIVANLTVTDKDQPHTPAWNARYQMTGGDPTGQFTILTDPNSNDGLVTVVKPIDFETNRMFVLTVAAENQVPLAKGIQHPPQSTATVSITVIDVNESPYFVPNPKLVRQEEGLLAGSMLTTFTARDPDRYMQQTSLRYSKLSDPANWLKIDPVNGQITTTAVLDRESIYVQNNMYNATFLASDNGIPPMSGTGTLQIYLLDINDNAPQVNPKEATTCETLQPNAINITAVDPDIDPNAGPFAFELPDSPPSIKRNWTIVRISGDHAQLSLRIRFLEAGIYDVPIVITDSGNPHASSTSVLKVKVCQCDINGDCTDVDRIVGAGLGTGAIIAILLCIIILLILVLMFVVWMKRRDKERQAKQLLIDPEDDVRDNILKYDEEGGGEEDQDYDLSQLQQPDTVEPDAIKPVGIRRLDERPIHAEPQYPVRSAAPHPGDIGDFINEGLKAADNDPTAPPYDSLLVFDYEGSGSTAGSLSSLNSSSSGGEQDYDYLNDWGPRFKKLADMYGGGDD

[2] = molecular target: T2, E-cadherin on Madin Darby canine kidney (MDCK) cells (canine (MDCK cells), UniProt F1PAA9 157-885)
T2 sequence (looked up): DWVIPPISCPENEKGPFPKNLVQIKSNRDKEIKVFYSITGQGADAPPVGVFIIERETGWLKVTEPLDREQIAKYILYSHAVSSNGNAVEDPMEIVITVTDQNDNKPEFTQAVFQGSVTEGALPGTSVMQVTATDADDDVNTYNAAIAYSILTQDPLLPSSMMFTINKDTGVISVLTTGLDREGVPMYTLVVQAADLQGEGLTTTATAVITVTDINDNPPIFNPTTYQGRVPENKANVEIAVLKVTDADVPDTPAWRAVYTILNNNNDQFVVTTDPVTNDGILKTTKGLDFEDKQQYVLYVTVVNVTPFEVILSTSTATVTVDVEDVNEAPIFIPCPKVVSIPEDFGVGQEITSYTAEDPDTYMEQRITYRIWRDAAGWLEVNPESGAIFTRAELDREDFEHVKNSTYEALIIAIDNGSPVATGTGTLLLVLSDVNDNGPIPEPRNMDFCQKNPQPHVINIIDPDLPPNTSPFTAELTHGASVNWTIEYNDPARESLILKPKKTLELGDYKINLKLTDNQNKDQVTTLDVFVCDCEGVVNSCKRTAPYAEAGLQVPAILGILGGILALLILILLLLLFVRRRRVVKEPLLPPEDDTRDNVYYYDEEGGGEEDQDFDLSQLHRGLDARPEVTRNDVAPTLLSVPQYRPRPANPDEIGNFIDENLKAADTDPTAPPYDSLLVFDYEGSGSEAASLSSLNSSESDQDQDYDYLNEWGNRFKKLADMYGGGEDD

[3] = molecular target: human L1 expressed on transfected 3T3 cells (human, UniProt P32004 20-1257)
[4] = molecular target: T1, chick N-cadherin expressed on …; remark: listed apart in the source
[5] = molecular target: N-cadherin expressed on transfected 3T3 cells (Examples 2 and 21)
[6] = molecular target: T1, chick N-cadherin expressed on …; remark: listed apart in the source
[7] = molecular target: T1, chick N-cadherin expressed on …; remark: listed apart in the source

human L1 expressed on transfected 3T3 cells, sequence (P32004 20-1257): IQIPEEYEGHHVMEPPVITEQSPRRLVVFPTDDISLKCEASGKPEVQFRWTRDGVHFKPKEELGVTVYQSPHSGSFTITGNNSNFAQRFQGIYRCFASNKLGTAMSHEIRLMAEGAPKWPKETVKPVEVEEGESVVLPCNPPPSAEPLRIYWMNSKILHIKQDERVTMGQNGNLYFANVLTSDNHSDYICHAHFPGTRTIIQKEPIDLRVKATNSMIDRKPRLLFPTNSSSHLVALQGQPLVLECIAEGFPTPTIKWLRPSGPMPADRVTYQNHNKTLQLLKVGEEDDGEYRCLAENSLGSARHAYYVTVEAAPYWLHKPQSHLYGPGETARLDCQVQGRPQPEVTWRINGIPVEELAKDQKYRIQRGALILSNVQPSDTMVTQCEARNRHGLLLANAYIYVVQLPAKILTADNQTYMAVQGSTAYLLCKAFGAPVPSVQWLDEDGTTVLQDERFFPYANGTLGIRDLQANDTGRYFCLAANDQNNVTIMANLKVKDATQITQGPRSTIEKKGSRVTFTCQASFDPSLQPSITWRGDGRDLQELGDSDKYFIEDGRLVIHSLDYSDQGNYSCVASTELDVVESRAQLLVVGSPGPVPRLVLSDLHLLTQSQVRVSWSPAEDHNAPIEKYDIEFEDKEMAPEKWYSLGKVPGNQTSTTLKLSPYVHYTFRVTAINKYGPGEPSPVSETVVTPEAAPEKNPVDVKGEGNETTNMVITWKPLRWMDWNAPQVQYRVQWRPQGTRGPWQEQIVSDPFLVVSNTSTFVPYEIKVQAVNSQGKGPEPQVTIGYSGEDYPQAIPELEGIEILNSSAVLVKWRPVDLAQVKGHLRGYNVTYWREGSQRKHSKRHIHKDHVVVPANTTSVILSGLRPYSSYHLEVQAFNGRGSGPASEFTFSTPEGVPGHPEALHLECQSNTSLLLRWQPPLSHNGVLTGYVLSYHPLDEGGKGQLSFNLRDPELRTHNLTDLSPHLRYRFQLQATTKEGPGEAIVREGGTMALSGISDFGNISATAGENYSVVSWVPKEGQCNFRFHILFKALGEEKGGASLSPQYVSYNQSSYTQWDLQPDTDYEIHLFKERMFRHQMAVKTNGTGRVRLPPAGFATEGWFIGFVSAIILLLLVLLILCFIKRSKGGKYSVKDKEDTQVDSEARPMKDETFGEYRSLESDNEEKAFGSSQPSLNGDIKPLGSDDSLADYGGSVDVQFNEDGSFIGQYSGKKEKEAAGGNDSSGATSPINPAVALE

Percent Inhibition of N-cadherin dependent neurite outgrowth (peptide 250 µg/ml) [1]: 68.2% | EC50, decrease of electrical resistance across MDCK cell monolayer [2]: 0.27 mM | % Inhibition of L1 Response (peptide 125 µg/ml) [3]: 41.6% | % Inhibition of N-Cadherin Response (peptide 125 µg/ml) [4]: 33.2% | % Inhibition of neurite outgrowth, 250 µg/mL (rat neurons) [5]: 65% | % inhibition of N-cadherin dependent neurite outgrowth (peptide 250 µg/mL) [6]: 68.2% | EC50 for inhibition of the N-cadherin response (neurite outgrowth) [7]: 0.22 mM
B1: N-Ac-CHAVC-NH2 (peptide)
peptide: Ac-CHAVC-NH2
modifications: disulfide 1-5 (inferred)
